PMC2112137
Each block holds one substance with its values, some of them ahead of it.

How the values were obtained:
[1] = biological target: F-actin-36,000-dalton factor complex (rabbit skeletal F-actin plus Physarum 36,000-dalton factor) (rabbit | Physarum polycephalum) (UniProt P68135); assay: co-sedimentation
[2] = biological target: rabbit skeletal muscle F-actin (rabbit) (UniProt P68135); assay: co-sedimentation
[3] = biological target: plasmodial actin of Physarum polycephalum (pure plasmodial F-actin) (Physarum polycephalum); assay: co-sedimentation
[4] = biological target: plasmodial actin of Physarum polycephalum (pure plasmodial F-actin) (Physarum polycephalum); assay: light scattering

- Bound TN (%) [1]: 25.8%
Substance: rabbit skeletal muscle troponin (complex)

Substance: 36,000-dalton factor (novel 36,000-dalton actin-binding protein from Physarum plasmodia) (natural protein)
- factor/actin weight ratio in the pellet (g/g (factor/actin)) [2]: 0.12
- stoichiometry N (mol actin per mol 36,000-dalton factor) [2]: 6.6

Substance: heavy meromyosin (HMM) of rabbit skeletal muscle myosin (complex)
- Actin/HMM binding ratio [3]: 0.192 g/g
- stoichiometry N (mol actin per mol HMM) [3]: 2
- HMM bound by 0.1 mg/ml F-actin (untreated actin) [4]: 0.362 mg/mL
- stoichiometry N (mol actin monomer per mol HMM) [4]: 2
